From PMC3078644

Biological target: Sortilin (immobilised for SPR) (UniProt Q99523)
Experiment: SPR

Sortilin (immobilised for SPR), sequence (P20783 whole entry): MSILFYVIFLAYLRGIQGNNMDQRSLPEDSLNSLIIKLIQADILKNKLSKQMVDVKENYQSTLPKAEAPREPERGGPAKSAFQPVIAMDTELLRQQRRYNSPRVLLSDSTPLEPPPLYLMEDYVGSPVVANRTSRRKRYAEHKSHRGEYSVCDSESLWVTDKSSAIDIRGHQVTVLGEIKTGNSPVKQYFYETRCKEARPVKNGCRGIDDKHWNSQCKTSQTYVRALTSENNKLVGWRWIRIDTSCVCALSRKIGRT

Q: “GST-NT3pro (prodomain of proNT3 fused to glutathione-S-transferase) (domain or fragment; other documents disagree on this pair)” was tested. Which Kd did it give?
A: Its Kd is 20 nM.
